Laboratory results reported in patent publication US20120316071A1 (published 2012).
Changes are numbered by the printed parent chain. Names and notes keep the numbering of the source. Values belong to the binder of their own block, whether it stands above or below them.

Tests used:
[1] = target: T1, Recombinant Human DLL4 (R&D Systems Cat#1506-D4/CF) (human, UniProt Q9NR61 27-524); assay: MSD multispot ECL, antigen spotted on plate, Fab 11 nM; blank spot 212
T1 construct: Bought from R&D Systems; also called rHuman DLL4; delta-like protein 4

[2] = target: T2, rHuman IGF-1 sR, (IGF-1 sR), CF (R&D Systems Cat#391-GR) (human, UniProt P08069 31-932); assay: MSD multispot ECL, antigen spotted, Fab 9.3 nM; blank spot 287
T2 construct: Bought soluble receptor; also called insulin-like growth factor-1 soluble receptor

[3] = target: T3, Recombinant Human DLL4 (R&D Systems Cat#1506-D4/CF) (human, UniProt Q9NR61 27-524); assay: as above
T3 construct: Bought recombinant protein; also called rHuman DLL4; delta-like protein 4

[4] = target: T4, rHuman HGF R/c-MET/Fc Chimera, CF (R&D Systems Cat#358-MT/CF) (human, UniProt P08581 25-932); assay: as above
T4 construct: Bought reagent; also called HGF R/Fc; hepatocyte growth factor receptor

[5] = target: T5, rHuman Erythropoietin R/Fc Chimera, CF (R&D Systems Cat#963-ER) (human, UniProt P19235 25-250); assay: as above
T5 construct: Bought reagent; also called EPO R/Fc; Epo R
T5 sequence (looked up): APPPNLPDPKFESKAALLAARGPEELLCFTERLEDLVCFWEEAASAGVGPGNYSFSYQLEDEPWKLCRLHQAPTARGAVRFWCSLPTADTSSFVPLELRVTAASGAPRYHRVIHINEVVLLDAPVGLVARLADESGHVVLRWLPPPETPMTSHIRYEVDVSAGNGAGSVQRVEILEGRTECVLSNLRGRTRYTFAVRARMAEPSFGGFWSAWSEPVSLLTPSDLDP

[6] = target: T6, rHuman CD44/Fc Chimera, CF (R&D Systems Cat#3660-CD) (human, UniProt P16070 21-220); assay: as above
T6 construct: Bought reagent

[7] = target: T7, rHuman Notch-1/Fc Chimera, CF (R&D Systems Cat#3647-TK) (human, UniProt P46531 19-526); assay: as above
T7 construct: Bought reagent

[8] = target: T8, rHuman ErbB2/Fc Chimera, CF (R&D Systems Cat#1129-ER) (human, UniProt P04626 23-652); assay: as above
T8 construct: Bought reagent; also called human epidermal growth factor 2 receptor

[9] = target: T9, rHuman EGF R/Fc Chimera, CF (R&D Systems Cat#344-ER) (human, UniProt P00533 25-645); assay: as above
T9 construct: Bought reagent; also called epidermal growth factor receptor

[10] = target: T10, rHuman P-Cadherin/Fc Chimera, CF (R&D Systems Cat#861-PC) (human, UniProt P22223 108-654); assay: ECL Multispot (MSD), antigen spotted; Fab 5 (µM); blank 211
T10 construct: Bought recombinant protein; Fc part of the bought chimera not given

[11] = target: T11, rHuman ErbB2/Fc Chimera, CF (R&D Systems Cat#1129-ER) (human, UniProt P04626 23-652); assay: as above
T11 construct: Bought recombinant protein; Fc part of the bought chimera not given

[12] = target: T12, rHuman EGF R/Fc Chimera, CF (R&D Systems Cat#344-ER) (human, UniProt P00533 25-645); assay: as above
T12 construct: Bought recombinant protein; Fc part of the bought chimera not given

[13] = target: T13, rHuman Erythropoietin R/Fc Chimera, CF (R&D Systems Cat#963-ER) (human, UniProt P19235 25-250); assay: as above
T13 construct: Bought recombinant protein; also called EPO R; EPO R/Fc; Fc part of the bought chimera not given
T13 sequence (looked up): T5 sequence (looked up)

[14] = target: T14, rHuman IGF-1 sR, CF (R&D Systems Cat#391-GR) (human, UniProt P08069 31-932); assay: as above
T14 construct: Bought recombinant soluble receptor; also called insulin-like growth factor-1 soluble receptor

[15] = target: T15, Recombinant Human DLL4 (R&D Systems Cat#1506-D4/CF) (human, UniProt Q9NR61 27-529); assay: as above
T15 construct: Bought recombinant protein; also called delta-like protein 4; rHuman DLL4

[16] = target: T16, rHuman HGF R/c-MET/Fc Chimera, CF (R&D Systems Cat#358-MT/CF) (human, UniProt P08581 25-932); assay: as above
T16 construct: Bought recombinant protein; also called HGF R/Fc; Fc part of the bought chimera not given

[17] = target: T17, rHuman CD44/Fc Chimera, CF (R&D Systems Cat#3660-CD) (human, UniProt P16070 21-220); assay: as above
T17 construct: Bought recombinant protein; Fc part of the bought chimera not given

[18] = target: T18, rHuman Notch-1/Fc Chimera, CF (R&D Systems Cat#3647-TK) (human, UniProt P46531 19-526); assay: as above
T18 construct: Bought recombinant protein; Fc part of the bought chimera not given

[19] = target: T19, rHuman HGF R/c-MET/Fc Chimera, CF (R&D Systems Cat#358-MT/CF) (human, UniProt P08581 25-932); assay: MSD multispot ECL, antigen spotted on plate; Fab 0.03188 uM; blank spot 536
T19 construct: Bought recombinant protein; also called HGF R/Fc; hepatocyte growth factor receptor; Fc part of the bought chimera not given

B2: Fab VH1-46_IGHD6-6*01_IGHJ1*01 & L6_IGKJ1*01 (Fab, V domains shown)
VH: QVQLVQSGAEVKKPGASVKVSCKASGYTFTSYYMHWVRQAPGQGLEWMGIINPSGGSTSYAQKFQGRVTMTRDTSTSTVYMELSSLRSEDTAVYYCAREEYSSSSAEYFQHWGQGTLVTVSS
VL: not shown
notes: Only variable domains are tied to the molecule; Tested as a Fab made in E. coli: heavy chain from Plasmid A (CH1 constant region, His6 and Flag tags), kappa light chain from Plasmid C (kappa CL); also called parent Hit Fab against DLL4; VH1-46_IGHD6-6*01_IGHJ1*01 & L6_IGKJ1*01 (parental)
ECL signal [2]: 315 ECL signal | ECL signal [3]: 13200 ECL signal | ECL signal [4]: 324 ECL signal | ECL signal [5]: 306 ECL signal | ECL signal [6]: 396 ECL signal | ECL signal [7]: 492 ECL signal | ECL signal [8]: 354 ECL signal | ECL signal [9]: 424 ECL signal

B3: Fab VH1-46_IGHD6-6*01_IGHJ1*01 S102A/S103P/S104F (APF) & L6_IGKJ1*01 (Fab, V domains shown)
VH: B2 VH with S102A, S103P, S104F
VL: not shown
notes: Tested as a Fab made in E. coli: VH cloned in Plasmid A (CH1 constant region, His6 and Flag tags), VL in Plasmid C (kappa constant region); also called H:APF & L:wt; APF triple mutant
ECL signal [10]: 547 | ECL signal [11]: 401 | ECL signal [12]: 356 | ECL signal [13]: 423 | ECL signal [14]: 300 | ECL signal [15]: 54900 | ECL signal [16]: 309 | ECL signal [17]: 343 | ECL signal [18]: 338

Next, values leading:

ECL signal [1]: 254
B1: Fab VH1-46_IGHD3-10*01_IGHJ4*01 & B3_IGKJ1*01 (Fab, V domains shown)
VH: QVQLVQSGAEVKKPGASVKVSCKASGYTFTSYYMHWVRQAPGQGLEWMGIINPSGGSTSYAQKFQGRVTMTRDTSTSTVYMELSSLRSEDTAVYYCAREYYYGSGSYYNDYFDYWGQGTLVTVSS
VL: not shown
notes: Tested as a Fab made in E. coli; VH was cloned into Plasmid A (CH1 constant region, His6 and Flag tags); The kappa VL was cloned into Plasmid C (kappa CL)

ECL signal [19]: 693
B4: Fab VH4-34_IGHD7-27*01_IGHJ4*01 & L5_IGKJ1*01 (Fab, V domains shown)
VH: QVQLQQWGAGLLKPSETLSLTCAVYGGSFSGYYWSWIRQPPGKGLEWIGEINHSGSTNYNPSLKSRVTISVDTSKNQFSLKLSSVTAADTAVYYCARANWGDYFDYWGQGTLVTVSS
VL: DIQMTQSPSSVSASVGDRVTITCRASQGISSWLAWYQQKPGKAPKLLIYAASSLQSGVPSRFSGSGSGTDFTLTISSLQPEDFATYYCQQANSFPPWTFGQGTKVEIKR
notes: Germline library Fab expressed in E. coli; VH was cloned into Plasmid A, which adds CH1 with His6 and Flag tags
